Test results from the supplement of paper PMC9732359.
± gives the uncertainty stated by the source.

Test: protein stability index of a GFP-peptide fusion (yeast GPS) (PSI 1-4); higher = more stable; sorted into four equal gates, so the index is relative within each strain
Procedure, shortened: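 Tiled 17-residue peptides from yeast proteins were fused downstream of GFP on a plasmid that also expresses Cherry, and the pooled library was carried in yeast. Mid-log cultures grown in leucine-free medium were sorted into four equal gates by GFP/Cherry fluorescence ratio. Plasmids from each gate were PCR-amplified and Illumina-sequenced, and reads were assigned to strains by barcodes. Each peptide's protein stability index is the sum, over gates, of the gate's read frequency multiplied by its gate number.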

NVTFGSKKDPRILKNVS [YMR153W/NUP53]
protein stability index (doa10∆): 2.81 ± 0.053 | protein stability index (pdr5∆): 2.69 ± 0.056 | protein stability index (san1∆): 2.81 ± 0.045 | protein stability index (ubr1∆): 2.67 ± 0.035

VMGTPLTNMMSPMGNAY [PGD1]
protein stability index (doa10∆): 2.03 ± 0.14 | protein stability index (pdr5∆): 2.24 ± 0.21 | protein stability index (san1∆): 1.62 ± 0.18

DYLFHLLISLNILFSLW [YLR018C/POM34]
protein stability index (doa10∆): 1.61 ± 0.041 | protein stability index (pdr5∆): 1.34 ± 0.036 | protein stability index (san1∆): 1.17 ± 0.072 | protein stability index (ubr1∆): 1.21 ± 0.03

AADNLGSYGSLLRFNGV [PRE4]
protein stability index (doa10∆): 3.03 ± 0.088 | protein stability index (pdr5∆): 3.15 ± 0.078 | protein stability index (san1∆): 3.25 ± 0.12 | protein stability index (ubr1∆): 3.04 ± 0.21

SSTKDYLTPPHECRLRD [RET1]
protein stability index (doa10∆): 3.34 ± 0.12 | protein stability index (pdr5∆): 3.22 ± 0.14 | protein stability index (san1∆): 3.2 ± 0.18 | protein stability index (ubr1∆): 3.25 ± 0.16

GKMVRAQDVALAKKWFL [PRP8]
protein stability index (doa10∆): 2.34 ± 0.12 | protein stability index (pdr5∆): 2.51 ± 0.14 | protein stability index (san1∆): 2.57 ± 0.23 | protein stability index (ubr1∆): 3.05 ± 0.24

FQKFLTGHPKGAAGAWM [FAS2]
protein stability index (doa10∆): 1.31 ± 0.25 | protein stability index (ubr1∆): 1.56 ± 0.18

RGGGHHSFEDAHTPMLQ [FAS1]
protein stability index (doa10∆): 3.3 ± 0.26 | protein stability index (pdr5∆): 3.48 ± 0.21

CGAGVFLANHKDRLYCG [RPS31]
protein stability index (doa10∆): 2.19 ± 0.097 | protein stability index (pdr5∆): 1.46 ± 0.16 | protein stability index (san1∆): 1.06 ± 0.21 | protein stability index (ubr1∆): 2.5 ± 0.2

EEPIKKLCYVLGVEDIT [RET1]
protein stability index (san1∆): 3.08 ± 0.15

KSYASLLAQLNGTVNNN [RPT3]
protein stability index (doa10∆): 2.61 ± 0.14 | protein stability index (pdr5∆): 1.84 ± 0.11 | protein stability index (san1∆): 2.2 ± 0.19 | protein stability index (ubr1∆): 2.55 ± 0.12

RFNHLVTRLFFICSIIQ [YML031W/NDC1]
protein stability index (doa10∆): 1.22 ± 0.046 | protein stability index (pdr5∆): 1.29 ± 0.039 | protein stability index (san1∆): 1.32 ± 0.086 | protein stability index (ubr1∆): 1.49 ± 0.039

SKEFSAYVSGLFEIYRD [YJR042W/NUP85]
protein stability index (doa10∆): 1.76 ± 0.093 | protein stability index (pdr5∆): 2.75 ± 0.15 | protein stability index (san1∆): 2.7 ± 0.19 | protein stability index (ubr1∆): 2.31 ± 0.08

SETREKELESIDVLLEQ [RPB4]
protein stability index (doa10∆): 3.04 ± 0.13 | protein stability index (pdr5∆): 3.11 ± 0.096 | protein stability index (san1∆): 2.86 ± 0.11 | protein stability index (ubr1∆): 3 ± 0.095

NDAMAGGFTAYGGADYG [RPO21]
protein stability index (doa10∆): 1.78 ± 0.083 | protein stability index (pdr5∆): 1.91 ± 0.066 | protein stability index (san1∆): 1.92 ± 0.1 | protein stability index (ubr1∆): 1.86 ± 0.074

KIEGCISQVSSIHAIGS [RPB7]
protein stability index (doa10∆): 1.9 ± 0.11 | protein stability index (pdr5∆): 2.48 ± 0.16 | protein stability index (san1∆): 2.11 ± 0.1 | protein stability index (ubr1∆): 2.17 ± 0.15

RYQIMLPEQLKSGKFCS [SNM1]
protein stability index (doa10∆): 2.74 ± 0.071 | protein stability index (pdr5∆): 2.08 ± 0.09 | protein stability index (san1∆): 2.7 ± 0.07 | protein stability index (ubr1∆): 2.12 ± 0.061

LQPIFKGEEAKLDSKKT [SSN3]
protein stability index (doa10∆): 3.52 ± 0.2 | protein stability index (pdr5∆): 3.11 ± 0.23 | protein stability index (san1∆): 3.54 ± 0.17

RNRGKIHSGVLSSIESD [YMR153W/NUP53]
protein stability index (doa10∆): 2.93 ± 0.1 | protein stability index (pdr5∆): 2.96 ± 0.12 | protein stability index (san1∆): 3.13 ± 0.066 | protein stability index (ubr1∆): 2.94 ± 0.087

QCLRFLKETVIPSLANN [POP6]
protein stability index (doa10∆): 1.49 ± 0.065 | protein stability index (pdr5∆): 1.63 ± 0.11 | protein stability index (san1∆): 1.92 ± 0.16 | protein stability index (ubr1∆): 2.09 ± 0.051

KVTLNKETQQYELEFDT [BRR2]
protein stability index (doa10∆): 3.13 ± 0.058 | protein stability index (pdr5∆): 3.01 ± 0.056 | protein stability index (san1∆): 3.15 ± 0.035 | protein stability index (ubr1∆): 3.19 ± 0.038

PSLKAHFTEIKLNKVDK [SIR3]
protein stability index (doa10∆): 2.31 ± 0.061 | protein stability index (pdr5∆): 2.13 ± 0.065 | protein stability index (san1∆): 2.35 ± 0.065 | protein stability index (ubr1∆): 2.08 ± 0.082

SFPILDQCVGQVGLNFE [YMR129W/POM152]
protein stability index (doa10∆): 3.07 ± 0.083 | protein stability index (pdr5∆): 2.96 ± 0.11 | protein stability index (san1∆): 3.1 ± 0.056 | protein stability index (ubr1∆): 3.02 ± 0.07

SERDSKDRYINGDKKVD [YMR129W/POM152]
protein stability index (doa10∆): 3.08 ± 0.14 | protein stability index (pdr5∆): 3.11 ± 0.092 | protein stability index (san1∆): 3.15 ± 0.091 | protein stability index (ubr1∆): 3.1 ± 0.1

NSITKDNIDYAPMRLAT [YJL039C/NUP192]
protein stability index (doa10∆): 2.58 ± 0.048 | protein stability index (pdr5∆): 2.74 ± 0.038 | protein stability index (san1∆): 2.71 ± 0.05 | protein stability index (ubr1∆): 2.57 ± 0.035

YMRLWEINETEFIRCGC [RMP1]
protein stability index (doa10∆): 3.31 ± 0.13 | protein stability index (pdr5∆): 3.46 ± 0.14 | protein stability index (san1∆): 3.55 ± 0.13 | protein stability index (ubr1∆): 3.33 ± 0.049

KAINQELEDVAVKKLYA [YCS4]
protein stability index (doa10∆): 3.26 ± 0.17 | protein stability index (pdr5∆): 3.23 ± 0.13 | protein stability index (san1∆): 2.72 ± 0.07 | protein stability index (ubr1∆): 2.94 ± 0.08
